From US20190292221A1 (published 2019)

Assays:
Human EGFR-his [1] = target: T1, Human EGFR-his (human, UniProt P00533 25-645); experiment: SPR, BEAT®3 captured on Protein G chip, EGFR-his injected; average of 4 replicates of Reference #1 and #2
T1 construct: Soluble his-tagged antigen injected over captured BEAT®3; also called hsEGFR; not shown: his tag

Human EGFR-his [2] = target: T1, Human EGFR-his; experiment: SPR, BEAT®3 captured on Protein G chip, EGFR-his injected; sample after high pH, 24 h
Human EGFR-his [3] = target: T1, Human EGFR-his; experiment: SPR, BEAT®3 captured on Protein G chip, EGFR-his injected; sample after high pH, 4 h
Human EGFR-his [4] = target: T1, Human EGFR-his; experiment: SPR, BEAT®3 captured on Protein G chip, EGFR-his injected; sample after high pH, 2 h
Human EGFR-his [5] = target: T1, Human EGFR-his; experiment: SPR, BEAT®3 captured on Protein G chip, EGFR-his injected; sample after high pH, 0 h

Average rel KD (Human EGFR-his [1]): 1 relative to reference
Average rel KD (Human EGFR-his [2]): 1.15 relative to reference
Relative KD R1 (Human EGFR-his [2]): 1.17 relative to reference
Average rel KD (Human EGFR-his [3]): 1.09 relative to reference
Relative KD R1 (Human EGFR-his [3]): 1.11 relative to reference
Average rel KD (Human EGFR-his [4]): 1.02 relative to reference
Relative KD R1 (Human EGFR-his [4]): 1.02 relative to reference
Average rel KD (Human EGFR-his [5]): 0.98 relative to reference
Relative KD R1 (Human EGFR-his [5]): 0.988 relative to reference
B1: BEAT®3 (bispecific antibody, human IgG1, kappa, L234A L235A)
chain 1: EVQLVESGGGLVQPGGSLRLSCAASGFTFNTYAMNWVRQAPGKGLEWVARIRSKYNNYATYYADSVKSRFTISRDDSKNTLYLQMNSLRAEDTAVYYCVRHGNFGNSYVSYFAYWGQGTTVTVSSGGGGSGGGGSGGGGSEIVVTQSPATLSVSPGERATLSCRSSTGAVTESNYANWVQEKPGQAFRGLIGGANKRAPGVPARFSGSLSGDEATLTISSLQSEDFAVYYCALFYSNTWVFGQGTKLEIKGGGGTQVQLQESGPGLVKPSETLSLTCTVSGGSVSSGDYYWTWIRQSPGKGLEWIGHIYYSGNTNYNPSLKSRLTISIDTSKTQFSLKLSSVTAADTAIYYCVRDRVTGAFDIWGQGTMVTVSSASTKGPSVFPLAPSSKSTSGGTAALGCLVKDYFPEPVTVSWNSGALTSGVHTFPAVLQSSGLYSLSSVVTVPSSSLGTQTYICNVNHKPSNTKVDKKVEPKSCDKTHTCPPCPAPEAAGGPSVFLFPPKPKDTLMISRTPEVTCVVVDVSHEDPEVQFKWYVDGVEVHNAKTKPREEQYNSTFRVVSVLTVLHQDWLNGKEYKCKVSNKALPAPIEKTISKTKGQPREPAVYTLPPSREEMTKNQVKLVCLVTGFYPSDIAVEWESSGQPENNYYTTPPMLDSDGSFSLVSWLNVDKSRWQQGNIFSCSVMHEALHNRFTQKSLSLSPG
chain 2: not shown
chain 3: DKTHTCPPCPAPEAAGGPSVFLFPPKPKDTLMISRTPEVTCVVVDVSHEDPEVKFNWYVDGVEVHNAKTKPREEQYNSTYRVVSVLTVLHQDWLNGKEYKCKVSNKALPAPIEKTISKAKGQPREPEVATFPPSRDELTKNQVTLVCLVTGFYPSDIAVEWESNGQPENNYKTDPPLLESDGSFALSSRLRVDKSRWQQGNVFSCSVMHEALHNHYTQKSLSLSPG
notes: also called third BEAT antibody
